One block for each molecule: values may come before it.
Experiments:
[1] = tested on: RKO cells; assay: Flow cytometry cell cycle analysis of RKO cells after base-damaging agent; assay type: cell-based, human; settings: parental RKO cells, 25 μg/ml
Experimental: Using flow cytometry analysis, cell cycle distributions of unsynchronized cell populations were performed (for flow cytometry analysis, cells were harvested with 3.5 mM EDTA-PBS buffer, fixed with 70% ethanol for at least 1 hr at 4° C., treated with 20 μg/ml RNase A for 30 min, stained with 60 μg/ml of propidium iodide (PI) for DNA content, and analyzed for cell cycle status with a FACScan cell sorter (Becton Dickinson). At least 10,000 cells were collected. The cell cycle profiles were calculated using the CellQuest and ModFit Lt software. Experiments were repeated at least twice.) The parental human RKO colon carcinoma cells and three isogenic RKO-derived clones stably expressing antisense GADD45 mRNA (discussed above) were analyzed.
Cells were treated with base-damaging agents: either 6.3 Gy of γ-radiation; 5 J/m^2 of UV; or, 25 μg/ml of the base-damaging alkylating agent MMS. These doses for MMS and UV radiation were selected because they were not toxic to these cells in a short-term growth assay. […] The cell cycle status of the cells was then analyzed and quantitated by flow cytometric analysis profile (as described above). […] IR caused a significant accumulation in G2/M with concomitant reductions in G1 and S in all four cell lines.

[2] = biological target: T1, cellular Cdc2 (Homo sapiens, UniProt P06493); assay: GST pull-down from RKO cell lysate, immunoblot for Cdc2; assay type: binding; settings: 100 ng protein, 1 mg RKO cellular protein
T1 construct: GST-GADD45 fusion protein were incubated with one mg of RKO cellular protein; endogenous in cells; host or cells: RKO (human colon carcinoma)
T1 sequence (P06493 whole entry, the tested form may be a part): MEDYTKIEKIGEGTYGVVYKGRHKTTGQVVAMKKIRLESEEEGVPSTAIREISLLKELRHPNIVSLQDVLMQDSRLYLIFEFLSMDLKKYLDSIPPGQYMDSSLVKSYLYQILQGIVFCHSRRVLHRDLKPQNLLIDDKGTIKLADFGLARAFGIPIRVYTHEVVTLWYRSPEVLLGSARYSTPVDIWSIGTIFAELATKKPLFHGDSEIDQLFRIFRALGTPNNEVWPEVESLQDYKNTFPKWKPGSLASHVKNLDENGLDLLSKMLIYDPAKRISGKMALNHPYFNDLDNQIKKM
Excerpt: For these experiments, a recombinant glutathione-S-transferase (GST)/GADD45 fusion protein was constructed. The GADD45 insert was PCR amplified from pHul45B2 using the following primers: (SEQ ID NO:3) 5′[…] 3′ and (SEQ ID NO:4) 5′[…] 3′. Products were cloned into a pcrII vector using the TA cloning kit (Invitrogen, San Diego, Calif.). A representative clone was confirmed by sequencing. The selected insert was removed by XhoI and NotI digestion, gel purified using the Wizard DNA Purification Kit (Promega, Madison, Wis.), and ligated into the XhoI/ NotI digested pGEX4T vector (Pharmacia, Piscataway, N.J.). GST-GADD45 fusion protein induction was prepared from freshly transformed BL21 bacterial cells (Novagen). 150 ml of overnight culture was diluted into 1L of LB with ampicillin and grown at 37° C. to late growth phase (OD600 was approximately 0.8). […]
To detect binding of cellular Cdc2 to GST-tagged GADD45, 100 ng of GST or GST-GADD45 fusion protein were incubated with one mg of RKO cellular protein for 4 hr at […]. […] Antibody was detected by a chemiluminescence system in accordance with the instructions of the manufacturer (Amersham, Buckinghamshire, England)
(§1) GST-GADD45 fusion protein or GST alone, which were linked to Sepharose beads, were incubated with cellular lysates, isolated, and analyzed by immunoblotting, as described above.

[3] = biological target: T2, Cdk2 (Homo sapiens, UniProt P24941); assay: GST pull-down from RKO cell lysate, immunoblot for Cdk2; assay type: binding
T2 construct: GST-GADD45 fusion protein were incubated with one mg of RKO cellular protein; endogenous in cells; host or cells: RKO (human colon carcinoma)

[4] = biological target: T3, cyclin B1 (Homo sapiens, UniProt P14635); assay: GST pull-down from RKO cell lysate, immunoblot for cyclin B1; assay type: binding; settings: 100 ng protein, 1 mg RKO cellular protein
T3 construct: endogenous in cells; host or cells: RKO (human colon carcinoma)
T3 sequence (P14635 whole entry): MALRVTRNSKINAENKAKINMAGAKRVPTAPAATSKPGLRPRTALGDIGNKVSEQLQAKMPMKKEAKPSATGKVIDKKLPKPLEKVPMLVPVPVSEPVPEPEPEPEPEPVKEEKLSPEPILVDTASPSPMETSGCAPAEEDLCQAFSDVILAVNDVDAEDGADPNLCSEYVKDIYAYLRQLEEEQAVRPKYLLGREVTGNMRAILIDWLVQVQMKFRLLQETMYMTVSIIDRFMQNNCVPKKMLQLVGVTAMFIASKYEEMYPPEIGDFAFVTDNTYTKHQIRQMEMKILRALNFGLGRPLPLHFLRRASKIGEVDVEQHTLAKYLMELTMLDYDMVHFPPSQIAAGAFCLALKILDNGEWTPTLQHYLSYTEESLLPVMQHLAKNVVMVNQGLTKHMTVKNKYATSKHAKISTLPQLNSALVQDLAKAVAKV
Experimental: To detect binding of cellular Cdc2 to GST-tagged GADD45, 100 ng of GST or GST-GADD45 fusion protein were incubated with one mg of RKO cellular protein for 4 hr at […]. Complexes were then washed three times with lysis buffer and loaded onto a 12% SDS-PAGE gel. Following electrophoresis, the proteins were electrophoretically transferred to Immobin membranes (Millipore, Bedford, Mass.). The membranes were blocked for 30 min in 5% nonfat milk and then incubated with anti-Cdc2 (Santa Cruz Biotechnology, Santa Cruz, Calif.) and anti-cyclin B1 (Pharmingen, San Diego, Calif.) monoclonal mouse antibodies. Antibody was detected by a chemiluminescence system in accordance with the instructions of the manufacturer (Amersham, Buckinghamshire, England)
as §1

[5] = biological target: Cdc2 (Homo sapiens, UniProt P06493); assay: Co-immunoprecipitation of Myc-tagged GADD45 with Cdc2 antibody in transfected RKO cells; assay type: cell-based; set-up: endogenous in cells; host or cells: RKO (human colon carcinoma)
Cdc2, sequence (P06493 whole entry): as the sequence (P06493 whole entry, the tested form may be a part) above
Excerpt: In order to determine if GADD45 associates with Cdc2 in vivo, RKO cells were transfected with Myc-epitope-tagged expression vectors. To construct the Myc-tag-GADD45 expression vector, internal GADD45 primers were designed to contain an in-frame 5′ NdeI site and were used to amplify the desired regions from a human GADD45 cDNA construct. PCR products were cloned into the pcrII vector using the TA Kit (Invitrogen, Carlsbad, Calif.) and sequenced prior to subcloning into XhoI/XbaI cut pCS2MT. This allowed expression of the GADD45 constructs tagged with 6 copies of the Myc epitope recognized by the monoclonal 9E10 antibody at the amino-terminus (Rupp (1994) Genes Dev. 8:1311–1323; Turner (1994) Genes Dev. 8:1434–1447).
For mammalian cell transfection, 10^6 RKO cells were seeded onto 100 mm plates the day before transfection. […]
Lysates from cells expressing Myc-tag-GADD45 fusion protein or unfused Myc-tag were immunoprecipitated with antibodies to c-myc and Cdc2 (both from Santa Cruz Biotech.). […] Following immunoblot analysis, the Myc-tagged GADD45 protein was detected in both the cell lysate and after immunoprecipitation with anti-Myc antibody. […] After immunoprecipitation with Cdc2 antibody, Myc-tagged GADD45 was also detected. No GADD45 was detected with (i.e., was co-immunoprecipitated by) the control antibodies. […]

Molecule: COS(C)(=O)=O [MMS, methyl methanesulfonate]
- cell cycle accumulation [1]: accumulated in S and G2/M

- association with cellular Cdc2 [2]: found to associate
- association with Cdk2 [3]: No association
- association with cyclin B1 [4]: did not associate
B1: GST-GADD45: recombinant glutathione-S-transferase (GST)/GADD45 fusion protein on Sepharose beads (protein)
chain: TLEEFSAGEQKTERMDKVGDALEEVLSKALSQRTITVGVYEAAKLLNVDPDNVVLCLLAADEDDDRDVALQIHFTLIQAFCCENDINILRVSNPGRLAELLLLETDAGPAASEGAEQPPDLHCVLVTNPHSSQWKDPALSQLICFCRESRYMDQWVPVINLPER
modifications: left off: a dimerising Fc or GST
notes: recombinant glutathione-S-transferase (GST)/GADD45 fusion protein on Sepharose beads

- detection after immunoprecipitation with Cdc2 antibody [5]: also detected
B2: Myc-tagged GADD45: GADD45 tagged with 6 copies of the Myc epitope, expressed in RKO cells (protein)
chain: MTLEEFSAGEQKTERMDKVGDALEEVLSKALSQRTITVGVYEAAKLLNVDPDNVVLCLLAADEDDDRDVALQIHFTLIQAFCCENDINILRVSNPGRLAELLLLETDAGPAASEGAEQPPDLHCVLVTNPHSSQWKDPALSQLICFCRESRYMDQWVPVINLPER
modifications: left off: small tags and cut ends
